How the values were obtained:
[1] = target: HIV-1 Env gp140 89.6 (HIV-1 isolate 89.6) (UniProt Q73372); test: SPR, Biacore X100, single-cycle, analytes at 0.1-1,000 nM on gp140 89.6, bivalent binding model
[2] = target: HIV-1 Env gp140 89.6 (HIV-1 isolate 89.6) (UniProt Q73372); test: ELISA on coated gp140 89.6 and SPR (Biacore X100, single-cycle, bivalent model)
[3] = target: HIV-1 Env gp140 89.6 (HIV-1 isolate 89.6) (UniProt Q73372); test: ELISA, gp140 89.6 coated at 2 µg/ml, detection with HRP goat anti-human IgG (Fab-specific)

Substance	Kd [1]	koff [1]	kon [1]	fold higher affinity than MD [2]	EC50 (read off the curve) [3]
MD13 (MD mutant with S64E/S66V in CH1 and S69L/T71S in CK)	17 nM	0.00081 s⁻¹	47000 M⁻¹ s⁻¹	1000 fold	1 to 10 nM
MD (mD1.22-CH1/m36.4-CK heterodimer, wild-type CH1-CK)	16000 nM	0.077 s⁻¹	4800 M⁻¹ s⁻¹	–	–
